The values below come from patent US20110237779A1.

Test [1] deals with human LFA-1 (human) (UniProt P20701). Description: phage ELISA, solution competition: Fab-phage incubated with serially diluted LFA-1, unbound phage captured on LFA-1-coated wells; IC50 used as affinity estimate.
The target is the same in test [2]. Description: phage ELISA, Fab on phage, competition with antigen in solution.
For test [3] the target is unchanged. Description: phage ELISA, Fab on phage, competition with antigen in solution; IC50 used as affinity estimate.

B1: MHM24 library clone, CDR-L2 SGSTLES (Fab, V domains shown)
VH: EVQLVESGGGLVQPGGSLRLSCAASGYSFTGHWMNWVRQAPGKGLEWVGMIHPSDSETRLNQKFKDRFTISADTSKNTAYLQMNSLRAEDTAVYYCARGIYFYGTTYFDYWGQGTLVTVSS
VL: DIQMTQSPSSLSASVGDRVTITCRASKTISKYLAWYQQKPGKAPKLLIYSGSTLESGVPSRFSGSGSGTDFTLTISSLQPEDFATYYCQQHNEYPLTFGQGTKVEIK
One may read the IC50 as the concentration at which inhibition is half-maximal. Consider B1, for which the IC50 in test [1] is 9 nM.

B2: MHM24 library clone, CDR-L2 SGRALQS (Fab, V domains shown)
VH: EVQLVESGGGLVQPGGSLRLSCAASGYSFTGHWMNWVRQAPGKGLEWVGMIHPSDSETRLNQKFKDRFTISADTSKNTAYLQMNSLRAEDTAVYYCARGIYFYGTTYFDYWGQGTLVTVSS
VL: DIQMTQSPSSLSASVGDRVTITCRASKTISKYLAWYQQKPGKAPKLLIYSGRALQSGVPSRFSGSGSGTDFTLTISSLQPEDFATYYCQQHNEYPLTFGQGTKVEIK
For the molecule B2, in test [1], the IC50 is 9 nM.

B3: MHM24 direct hypervariable region graft on the acceptor human consensus framework (Fab displayed on phage) (Fab, V domains shown)
VH: EVQLVESGGGLVQPGGSLRLSCAASGYSFTGHWMNWVRQAPGKGLEWVGMIHPSDSETRLNQKFKDRFTISADTSKNTAYLQMNSLRAEDTAVYYCARGIYFYGTTYFDYWGQGTLVTVSS
VL: DIQMTQSPSSLSASVGDRVTITCRASKTISKYLAWYQQKPGKAPKLLIYSGSTLQSGVPSRFSGSGSGTDFTLTISSLQPEDFATYYCQQHNEYPLTFGQGTKVEIK
Regarding B3, the IC50 in test [1] is 6 nM; in test [2], 6 nM; in test [3] it was 4 nM.

B4: MHM24 library clone, CDR-L2 SGRTLWP (Fab, V domains shown)
VH: EVQLVESGGGLVQPGGSLRLSCAASGYSFTGHWMNWVRQAPGKGLEWVGMIHPSDSETRLNQKFKDRFTISADTSKNTAYLQMNSLRAEDTAVYYCARGIYFYGTTYFDYWGQGTLVTVSS
VL: DIQMTQSPSSLSASVGDRVTITCRASKTISKYLAWYQQKPGKAPKLLIYSGRTLWPGVPSRFSGSGSGTDFTLTISSLQPEDFATYYCQQHNEYPLTFGQGTKVEIK
Consider B4, for which, in test [1], the IC50 is 17 nM.

B5: MHM24 library clone, CDR-L2 SGRSLQS, VH S28R (Fab, V domains shown)
VH: EVQLVESGGGLVQPGGSLRLSCAASGYRFTGHWMNWVRQAPGKGLEWVGMIHPSDSETRLNQKFKDRFTISADTSKNTAYLQMNSLRAEDTAVYYCARGIYFYGTTYFDYWGQGTLVTVSS
VL: DIQMTQSPSSLSASVGDRVTITCRASKTISKYLAWYQQKPGKAPKLLIYSGRSLQSGVPSRFSGSGSGTDFTLTISSLQPEDFATYYCQQHNEYPLTFGQGTKVEIK
B5: the IC50 in test [1] was 17 nM.

B6: MHM24 library clone, CDR-L2 SGGTLHR (Fab, V domains shown)
VH: EVQLVESGGGLVQPGGSLRLSCAASGYSFTGHWMNWVRQAPGKGLEWVGMIHPSDSETRLNQKFKDRFTISADTSKNTAYLQMNSLRAEDTAVYYCARGIYFYGTTYFDYWGQGTLVTVSS
VL: DIQMTQSPSSLSASVGDRVTITCRASKTISKYLAWYQQKPGKAPKLLIYSGGTLHRGVPSRFSGSGSGTDFTLTISSLQPEDFATYYCQQHNEYPLTFGQGTKVEIK
In the case of B6, the IC50 in test [1] is 6 nM.

B7: MHM24 library clone, CDR-L2 NARSLQS (Fab, V domains shown)
VH: EVQLVESGGGLVQPGGSLRLSCAASGYSFTGHWMNWVRQAPGKGLEWVGMIHPSDSETRLNQKFKDRFTISADTSKNTAYLQMNSLRAEDTAVYYCARGIYFYGTTYFDYWGQGTLVTVSS
VL: DIQMTQSPSSLSASVGDRVTITCRASKTISKYLAWYQQKPGKAPKLLIYNARSLQSGVPSRFSGSGSGTDFTLTISSLQPEDFATYYCQQHNEYPLTFGQGTKVEIK
As for B7, the half-maximal inhibitory concentration (IC50) in test [1] is 32 nM.

B8: MHM24 library clone, CDR-L2 SGSALQS (Fab, V domains shown)
VH: EVQLVESGGGLVQPGGSLRLSCAASGYSFTGHWMNWVRQAPGKGLEWVGMIHPSDSETRLNQKFKDRFTISADTSKNTAYLQMNSLRAEDTAVYYCARGIYFYGTTYFDYWGQGTLVTVSS
VL: DIQMTQSPSSLSASVGDRVTITCRASKTISKYLAWYQQKPGKAPKLLIYSGSALQSGVPSRFSGSGSGTDFTLTISSLQPEDFATYYCQQHNEYPLTFGQGTKVEIK
As for B8, in test [1], the IC50 was 8 nM.

B9: MHM24 library clone, CDR-L2 TGSTLES, VL S26T (Fab, V domains shown)
VH: EVQLVESGGGLVQPGGSLRLSCAASGYSFTGHWMNWVRQAPGKGLEWVGMIHPSDSETRLNQKFKDRFTISADTSKNTAYLQMNSLRAEDTAVYYCARGIYFYGTTYFDYWGQGTLVTVSS
VL: DIQMTQSPSSLSASVGDRVTITCRATKTISKYLAWYQQKPGKAPKLLIYTGSTLESGVPSRFSGSGSGTDFTLTISSLQPEDFATYYCQQHNEYPLTFGQGTKVEIK
On to B9, for which, in test [1], the IC50 is 4 nM.

B10: MHM24 library clone, CDR-L2 SGYSLHR, VL K27E, L96V (Fab, V domains shown)
VH: EVQLVESGGGLVQPGGSLRLSCAASGYSFTGHWMNWVRQAPGKGLEWVGMIHPSDSETRLNQKFKDRFTISADTSKNTAYLQMNSLRAEDTAVYYCARGIYFYGTTYFDYWGQGTLVTVSS
VL: DIQMTQSPSSLSASVGDRVTITCRASETISKYLAWYQQKPGKAPKLLIYSGYSLHRGVPSRFSGSGSGTDFTLTISSLQPEDFATYYCQQHNEYPVTFGQGTKVEIK
Turning to B10, in test [1], the IC50 is 41 nM.

B11: MHM24 library clone, CDR-L2 SGSTLES, VH D101E (Fab, V domains shown)
VH: EVQLVESGGGLVQPGGSLRLSCAASGYSFTGHWMNWVRQAPGKGLEWVGMIHPSDSETRLNQKFKDRFTISADTSKNTAYLQMNSLRAEDTAVYYCARGIYFYGTTYFEYWGQGTLVTVSS
VL: DIQMTQSPSSLSASVGDRVTITCRASKTISKYLAWYQQKPGKAPKLLIYSGSTLESGVPSRFSGSGSGTDFTLTISSLQPEDFATYYCQQHNEYPLTFGQGTKVEIK
In the case of B11, in test [1], the IC50 is 8 nM.

B12: MHM24 library clone, CDR-L2 SGSTLES, VH S55I (Fab, V domains shown)
VH: EVQLVESGGGLVQPGGSLRLSCAASGYSFTGHWMNWVRQAPGKGLEWVGMIHPSDIETRLNQKFKDRFTISADTSKNTAYLQMNSLRAEDTAVYYCARGIYFYGTTYFDYWGQGTLVTVSS
VL: DIQMTQSPSSLSASVGDRVTITCRASKTISKYLAWYQQKPGKAPKLLIYSGSTLESGVPSRFSGSGSGTDFTLTISSLQPEDFATYYCQQHNEYPLTFGQGTKVEIK
Regarding B12, the IC50 in test [1] was 4 nM.

B13: MHM24 library clone, CDR-L2 SGSIFQY, VH Y100dT (Fab, part only; not given: CH1, light constant and phage P3, part only)
light chain: DIQMTQSPSSLSASVGDRVTITCRASKTISKYLAWYQQKPGKAPKLLIYSGSIFQYGVPSRFSGSGSGTDFTLTISSLQPEDFATYYCQQHNEYPLTFGQGTKVEIKR
heavy chain (VH-CH1 fused to phage P3), part: EVQLVESGGGLVQPGGSLRLSCAASGYSFTGHWMNWVRQAPGKGLEWVGMIHPSDSETRLNQKFKDRFTISADTSKNTAYLQMNSLRAEDTAVYYCARGIYFYGTTYFDYWGQGTLVTVSS
On to B13, for which the half-inhibitory concentration (IC50) in test [1] was 11 nM.

B14: MHM24 library clone, CDR-L2 SGRSLQR, VH L45P (Fab, V domains shown)
VH: EVQLVESGGGLVQPGGSLRLSCAASGYSFTGHWMNWVRQAPGKGPEWVGMIHPSDSETRLNQKFKDRFTISADTSKNTAYLQMNSLRAEDTAVYYCARGIYFYGTTYFDYWGQGTLVTVSS
VL: DIQMTQSPSSLSASVGDRVTITCRASKTISKYLAWYQQKPGKAPKLLIYSGRSLQRGVPSRFSGSGSGTDFTLTISSLQPEDFATYYCQQHNEYPLTFGQGTKVEIK
As for B14, the IC50 in test [1] is 27 nM.

B15: MHM24 library clone, CDR-L2 SGRAMQR (Fab, V domains shown)
VH: EVQLVESGGGLVQPGGSLRLSCAASGYSFTGHWMNWVRQAPGKGLEWVGMIHPSDSETRLNQKFKDRFTISADTSKNTAYLQMNSLRAEDTAVYYCARGIYFYGTTYFDYWGQGTLVTVSS
VL: DIQMTQSPSSLSASVGDRVTITCRASKTISKYLAWYQQKPGKAPKLLIYSGRAMQRGVPSRFSGSGSGTDFTLTISSLQPEDFATYYCQQHNEYPLTFGQGTKVEIK
For B15, the IC50 in test [1] was 11 nM.
